# Measured values from publication PMC9188649 (Molecular cell, 2022).
# B1: hSARM1 (residues 28–724), sample for cryo-EM (enzyme, human, UniProt Q6SZW1 28-724, looked up)
# chain: LAVPGPDGGGGTGPWWAAGGRGPREVSPGAGTEVQDALERALPELQQALSALKQAGGARAVGAGLAEVFQLVEEAWLLPAVGREVAQGLCDAIRLDGGLDLLLRLLQAPELETRVQAARLLEQILVAENRDRVARIGLGVILNLAKEREPVELARSVAGILEHMFKHSEETCQRLVAAGGLDAVLYWCRRTDPALLRHCALALGNCALHGGQAVQRRMVEKRAAEWLFPLAFSKEDELLRLHACLAVAVLATNKEVEREVERSGTLALVEPLVASLDPGRFARCLVDASDTSQGRGPDDLQRLVPLLDSNRLEAQCIGAFYLCAEAAIKSLQGKTKVFSDIGAIQSLKRLVSYSTNGTKSALAKRALRLLGEEVPRPILPSVPSWKEAEVQTWLQQIGFSKYCESFREQQVDGDLLLRLTEEELQTDLGMKSGITRKRFFRELTELKTFANYSTCDRSNLADWLGSLDPRFRQYTYGLVSCGLDRSLLHRVSEQQLLEDCGIHLGVHRARILTAAREMLHSPLPCTGGKPSGDTPDVFISYRRNSGSQLASLLKVHLQLHGFSVFIDVEKLEAGKFEDKLIQSVMGARNFVLVLSPGALDKCMQDHDCKDWVHKEIVTALSCGKNIVPIIDGFEWPEPQVLPEDMQAVLTFNGIKWSHEYQEATIEKIIRFLQGRSSRDSSAGSDTSLEGAAPMGPT
# Molecular target: the molecule itself
# Assay: cryo-EM structure
protein,measurement,value
B1,stoichiometry N,8
